# Assay results published in US20180031579A1.
# Target: Growth differentiation factor 11 (GDF11) (human) (UniProt O95390)
# Assay: cell-based or functional assay
# Sequence of UniProt O95390 (O95390 299-407 limits assumed): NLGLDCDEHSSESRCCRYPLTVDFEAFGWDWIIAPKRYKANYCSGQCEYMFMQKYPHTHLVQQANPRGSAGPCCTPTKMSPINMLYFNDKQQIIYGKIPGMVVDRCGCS
substance,measurement,value
anti-human GDF11 antibody ab71347 (Abcam),"apoptosis in primary AML blasts, subjects 5 and 6",50 % apoptosis
